In test [1] the target is T1, human PCSK9 (proprotein convertase subtilisin kexin type 9) (human, UniProt Q8NBP7 31-692). The experiment in a line: cell-based or functional assay.
The target in test [2] is T1, human PCSK9 (proprotein convertase …). In words: PCSK9:EGFA FRET, competitor EGFA peptide.

From patent US20120094909A1 (Bristol-Myers Squibb, published 2012) come the findings set out here.

What is called EC50 is the concentration at which the effect is half-maximal. Read a high EC50 as a need for much substance.

B1: 2451A02 (designed binder)
chain: MGVSDVPRDLEVVAATPTSLLISWDAPAAGYGYYRITYGETGGNSPVQEFTVPVSKGTATISGLKPGVDYTITVYAVEFPFPGSGYYHRPISINYRTEIDKPSQHHHHHH
As for B1, in test [1], the “LDLR Depletion (% inhibition at 75 nM)” value is 106%. Further, a half-maximal effect in test [2] (EC50) was put at 3.2 nM.

B2: 2451F03 (designed binder)
chain: MGVSDVPRDLEVVAATPTSLLISWDPPAEGYGYYRITYGETGGNSPVQEFTVPVSKGTATISGLKPGVDYTITVYAVEFNFPGSGYYHRPISINYRTEIDKPSQHHHHHH
On to B2, for which the “LDLR Depletion (% inhibition at 75 nM)” value in test [1] came to 113%. In addition, in test [2], a half-maximal effect (EC50) was put at 2.8 nM.

B3: 2451B02 (designed binder)
chain: MGVSDVPRDLEVVAATPTSLLISWDAPAAAYGYYRITYGETGGNSPVQEFTVPVSKGTATISGLKPGVDYTITVYAVEFDYPGSGYYHRPISINYRTEIDKPSQHHHHHH
B3: the “LDLR Depletion (% inhibition at 75 nM)” value in test [1] is 71.4%. In test [2], this molecule had an EC50 of 5.3 nM.

B4: 2451H01 (designed binder)
chain: MGVSDVPRDLEVVAATPTSLLISWDAPAAGYGYYRITYGETGGNSPVQEFTVPVSKGTATISGLKPGVDYTITVYAVEYDFPGSGYYHRPISINYRTEIDKPSQHHHHHH
Consider B4, for which, in test [1], the “LDLR Depletion (% inhibition at 75 nM)” value was determined as 95.8%. This molecule came in with an EC50 in test [2] of 2.8 nM.

B5: 2451D05 (designed binder)
chain: MGVSDVPRDLEVVAATPTSLLISWDAPAGAYGYYRITYGETGGNSPVQEFTVPVSKGTATISGLKPGVDYTITVYAVEFDFPGSGYYHRPISINYRTEIDKPSQHHHHHH
With B5, in test [1], the “LDLR Depletion (% inhibition at 75 nM)” value came to 115%. For the same molecule, the EC50 in test [2] was determined as 2.8 nM.

B6: 2451G01 (designed binder)
chain: MGVSDVPRDLEVVAATPTSLLISWDAPAGGYGYYRITYGETGGNSPVQEFTVPSSKGTATISGLKPGVDYTITVYAVEFDFPGSGYYHRPISINYRTEIDKPSQHHHHHH
As for B6, in test [1], the “LDLR Depletion (% inhibition at 75 nM)” value turned out to be 90.8%. Also, in test [2], the half-maximal effective concentration (EC50) came out at 3.8 nM.

B7: 2451B05 (designed binder)
chain: MGVSDVPRDLEVVAATPTSLLISWDAPAGGYGYYRITYGETGGNSPVQEFTVPSSKGTATISGLKPGVDYTITVYAVEFDYPGSGYYHRPISINYRTEIDKPSQHHHHHH
As to B7, the “LDLR Depletion (% inhibition at 75 nM)” value in test [1] was 91.7%. Moreover, the EC50 in test [2] amounted to 6.3 nM.

B8: 2381D02 (designed binder)
chain: MGVSDVPRDLEVVAATPTSLLISWEPFSRLPGGGEYYRITYGETGGNSPLQQFTVPGSKGTATISGLKPGVDYTITVYAVEYPYDHSGYYHRPISINYRTEIDKPSQHHHHHH
Consider B8, for which the “LDLR Depletion (% inhibition at 75 nM)” value in test [1] came to 185%. The response in test [2] was half-maximal at 3.1 nM (EC50).

B9: 2381A04 (designed binder)
chain: MGVSDVPRDLEVVAATPTSLLISWEPFSRLPGGGEYYRITYGETGGNSPLQQFTVPGSKGTATISGLKPGVDYTITVYAVEYPYPFSGYYHRPISINYRTEIDKPSQHHHHHH
With B9, the “LDLR Depletion (% inhibition at 75 nM)” value in test [1] stood at 100%. In test [2], this molecule showed a half-maximal effective concentration (EC50) of 3.3 nM.

B10: 2381B06 (designed binder)
chain: MGVSDVPRDLEVVAATPTSLLISWEPFSRLPGGGEYYRITYGETGGNSPLQQFTVPGSKGTATISGLKPGVDYTITVYAVEYPYPHSGYYHRPISINYRTEIDKPSQHHHHHH
B10: the “LDLR Depletion (% inhibition at 75 nM)” value in test [1] turned out to be 120%. In addition, the midpoint of the response in test [2], the EC50, lay at 3.5 nM.

B11: 2381G03 (designed binder)
chain: MGVSDVPRDLEVVAATPTSLLISWEPFSRLPGGGEYYRITYGETGGNSPLQQFTVPGSKGTATISGLKPGVDYTITVYAVEFPYAHSGYYHRPISINYRTEIDKPSQHHHHHH
In the case of B11, the “LDLR Depletion (% inhibition at 75 nM)” value in test [1] was 70.2%. This molecule gave a concentration giving a half-maximal response (EC50) in test [2] of 3.4 nM.

B12: 2381H03 (designed binder)
chain: MGVSDVPRDLEVVAATPTSLLISWEPFSRLPGGGEYYRITYGETGGNSPLQQFTVPGSKGTATISGLKPGVDYTITVYAVEYPYAHSGYFHRPISINYRTEIDKPSQHHHHHH
For B12, in test [1], the “LDLR Depletion (% inhibition at 75 nM)” value was 89.8%. Further, a half-maximal response in test [2] (EC50) required 3.4 nM.

B13: 1922G04(R25D) (designed binder)
chain: MGVSDVPRDLEVVAATPTSLLISWDPPSHAYGYYRITYGETGGNSPVQEFTVPIGKGTATISGLKPGVDYTITVYAVEYPWKGSGYYHRPISINYRTGSGSHHHHHH
In the case of B13, the “LDLR Depletion EC50” value in test [1] worked out at 29 nM. Also, a half-maximal effect in test [2] (EC50) was put at 2.5 nM.

B14: 1922G04(R25E) (designed binder)
chain: MGVSDVPRDLEVVAATPTSLLISWEPPSHAYGYYRITYGETGGNSPVQEFTVPIGKGTATISGLKPGVDYTITVYAVEYPWKGSGYYHRPISINYRTGSGSHHHHHH
Turning to B14, the “LDLR Depletion EC50” value in test [1] is 29 nM. In test [2], this molecule showed an EC50 of 3.5 nM.

B15: 2381A08 (designed binder)
chain: MGVSDVPRDLEVVAATPTSLLISWDAPADGGYGYYRITYGETGGNSPVQEFTVPGSKGTATISGLKPGVDYTITVYAVEYDFPGAGYYHRPISINYRTEIDKPSQHHHHHH
As for B15, the “LDLR Depletion (% inhibition at 75 nM)” value in test [1] was 91.4%. This molecule also came in with an EC50 in test [2] of 3.6 nM.

B16: 2382E04 (designed binder)
chain: MGVSDVPRDLEVVAATPTSLLISWDAPAGGGYGYYRITYGETGGNSPVQEFTVPVSKGTATISGLKPGVDYTITVYAVEFTFPGAGYYHRPISINYRTEIDKPSQHHHHHH
Consider B16, for which, in test [1], the “LDLR Depletion (% inhibition at 75 nM)” value came to 61.5%. In addition, the EC50 in test [2] stood at 3 nM.

B17: 2382F03 (designed binder)
chain: MGVSDVPRDLEVVAATPTSLLISWDAPAADAYGYYRITYGETGGNSPVQEFTVPVSKGTATISGLKPGVDYTITVYAVEFNFPGAGYYHRPISINYRTEIDKPSQHHHHHH
Regarding B17, the “LDLR Depletion (% inhibition at 75 nM)” value in test [1] came to 88.6%. The concentration giving a half-maximal response (EC50) in test [2] stood at 2.7 nM.

B18: 2382A01 (designed binder)
chain: MGVSDVPRDLEVVAATPTSLLISWAAPAGGGYGYYRITYGETGGNSPVQEFTVPVSKGTATISGLKPGVDYTITVYAVEYDFPGAGYYHRPISINYRTEIDKPSQHHHHHH
For the molecule B18, the “LDLR Depletion (% inhibition at 75 nM)” value in test [1] amounted to 120%. The molecule further came in with a concentration for a half-maximal effect (EC50) in test [2] of 12.9 nM.

B19: 2382F02 (designed binder)
chain: MGVSDVPRDLEVVAATPTSLLISWDAPAGGGYGYYRITYGETGGNSPVQEFTVPVSKGTATISGLKPGVDYTITVYAVEFDFPGSGYYHRPISINYRTEIDKPSQHHHHHH
Consider B19, for which, in test [1], the “LDLR Depletion (% inhibition at 75 nM)” value is -6.3%. In addition, the half-maximal effective concentration (EC50) in test [2] worked out at 2.6 nM.

B20: 2381C08 (designed binder)
chain: MGVSDVPRDLEVVAATPTSLLISWDAPADGAYGYYRITYGETGGNSPVQEFTVPVSKGTATISGLKPGVDYTITVYAVEFPYPFAGYYHRPISINYRTEIDKPSQHHHHHH
As for B20, in test [1], the “LDLR Depletion (% inhibition at 75 nM)” value is 15.3%. Further, the EC50 in test [2] stood at 0.7 nM.

B21: 2381B10 (designed binder)
chain: MGVSDVPRDLEVVAATPTSLLISWDAPAGGGYGYYRITYGETGGNSPVQEFTVPVSKGTATISGLKPGVDYTITVYAVEYNFIGAGYYHRPISINYRTEIDKPSQHHHHHH
For the molecule B21, in test [1], the “LDLR Depletion (% inhibition at 75 nM)” value stood at 96.4%. In test [2], this molecule registered a half-maximal effective concentration (EC50) of 7.3 nM.
